T1: phospho-SRC Y527 peptide [H-TSTEPQ-pY-QPGENL-OH]
T1 chain: TSTEPQYQPGENL

B1: RPTPκ (endogenous, in human RA FLS and RA synovial tissue) (protein)
chain: AQGQFSAGGCTFDDGPGACDYHQDLYDDFEWVHVSAQEPHYLPPEMPQGSYMIVDSSDHDPGEKARLQLPTMKENDTHCIDFSYLLYSQKGLNPGTLNILVRVNKGPLANPIWNVTGFTGRDWLRAELAVSTFWPNEYQVIFEAEVSGGRSGYIAIDDIQVLSYPCDKSPHFLRLGDVEVNAGQNATFQCIATGRDAVHNKLWLQRRNGEDIPVAQTKNINHRRFAASFRLQEVTKTDQDLYRCVTQSERGSGVSNFAQLIVREPPRPIAPPQLLGVGPTYLLIQLNANSIIGDGPIILKEVEYRMTSGSWTETHAVNAPTYKLWHLDPDTEYEIRVLLTRPGEGGTGLPGPPLITRTKCAEPMRTPKTLKIAEIQARRIAVDWESLGYNITRCHTFNVTICYHYFRGHNESKADCLDMDPKAPQHVVNHLPPYTNVSLKMILTNPEGRKESEETIIQTDEDVPGPVPVKSLQGTSFENKIFLNWKEPLDPNGIITQYEISYSSIRSFDPAVPVAGPPQTVSNLWNSTHHVFMHLHPGTTYQFFIRASTVKGFGPATAINVTTNISAPTLPDYEGVDASLNETATTITVLLRPAQAKGAPISAYQIVVEELHPHRTKREAGAMECYQVPVTYQNAMSGGAPYYFAAELPPGNLPEPAPFTVGDNRTYQGFWNPPLAPRKGYNIYFQAMSSVEKETKTQCVRIATKAATEEPEVIPDPAKQTDRVVKIAGISAGILVFILLLLVVILIVKKSKLAKKRKDAMGNTRQEMTHMVNAMDRSYADQSTLHAEDPLSITFMDQHNFSPRYENHSATAESSRLLDVPRYLCEGTESPYQTGQLHPAIRVADLLQHINLMKTSDSYGFKEEYESFFEGQSASWDVAKKDQNRAKNRYGNIIAYDHSRVILQPVEDDPSSDYINANYIDGYQRPSHYIATQGPVHETVYDFWRMIWQEQSACIVMVTNLVEVGRVKCYKYWPDDTEVYGDFKVTCVEMEPLAEYVVRTFTLERRGYNEIREVKQFHFTGWPDHGVPYHATGLLSFIRRVKLSNPPSAGPIVVHCSAGAGRTGCYIVIDIMLDMAEREGVVDIYNCVKALRSRRINMVQTEEQYIFIHDAILEACLCGETAIPVCEFKAAYFDMIRIDSQTNSSHLKDEFQTLNSVTPRLQAEDCSIACLPRNHDKNRFMDMLPPDRCLPFLITIDGESSNYINAALMDSYRQPAAFIVTQYPLPNTVKDFWRLVYDYGCTSIVMLNEVDLSQGCPQYWPEEGMLRYGPIQVECMSCSMDCDVINRIFRICNLTRPQEGYLMVQQFQYLGWASHREVPGSKRSFLKLILQVEKWQEECEEGEGRTIIHCLNGGGRSGMFCAIGIVVEMVKRQNVVDVFHAVKTLRNSKPNMVEAPEQYRFCYDVALEYLESS
B2: C-terminally HA-tagged wild type (WT) RPTPκ (NM 008983.2), full-length, immunoprecipitated from COS-1 cells (protein)
chain: ALGQFSAGGCTFDDGPGACDYHQDLYDDFEWVHVSAQEPHYLPPEMPQGSYMVVDSSNHDPGEKARLQLPTMKENDTHCIDFSYLLYSQKGLNPGTLNILVRVNKGPLANPIWNVTGFTGRDWLRAELAVSTFWPNEYQVIFEAEVSGGRSGYIAIDDIQVLSYPCDKSPHFLRLGDVEVNAGQNATFQCIATGRDAVHNKLWLQRRNGEDIPVAQTKNINHRRFAASFRLQEVTKTDQDLYRCVTQSERGSGVSNFAQLIVREPPRPIAPPQLLGVGPTYLLIQLNANSIIGDGPIILKEVEYRMTSGSWTETHAVNAPTYKLWHLDPDTEYEIRVLLTRPGEGGTGLPGPPLITRTKCAEPMRTPKTLKIAEIQARRIAVDWESLGYNITRCHTFNVTICYHYFRGHNESRADCLDMDPKAPQHVVNHLPPYTNVSLKMILTNPEGRKESEETIIQTDEDVPGPVPVKSLQGTSFENKIFLNWKEPLEPNGIITQYEVSYSSIRSFDPAVPVAGPPQTVSNLWNSTHHVFMHLHPGTTYQFFIRASTVKGFGPATAINVTTNISAPSLPDYEGVDASLNETATTITVLLRPAQAKGAPISAYQIVVEQLHPHRTKREAGAMECYQVPVTYQNALSGGAPYYFAAELPPGNLPEPAPFTVGDNRTYKGFWNPPLAPRKGYNIYFQAMSSVEKETKTQCVRIATKAAATEEPEVIPDPAKQTDRVVKIAGISAGILVFILLLLVVIVIVKKSKLAKKRKDAMGNTRQEMTHMVNAMDRSYADQSTLHAEDPLSLTFMDQHNFSPRLPNDPLVPTAVLDENHSATAESSRLLDVPRYLCEGTESPYQTGQLHPAIRVADLLQHINLMKTSDSYGFKEEYESFFEGQSASWDVAKKDQNRAKNRYGNIIAYDHSRVILQPVEDDPSSDYINANYIDIWLYRDGYQRPSHYIATQGPVHETVYDFWRMVWQEQSACIVMVTNLVEVGRVKCYKYWPDDTEVYGDFKVTCVEMEPLAEYVVRTFTLERRGYNEIREVKQFHFTGWPDHGVPYHATGLLSFIRRVKLSNPPSAGPIVVHCSAGAGRTGCYIVIDIMLDMAEREGVVDIYNCVKALRSRRINMVQTEEQYIFIHDAILEACLCGETAIPVCEFKAAYFDMIRIDSQTNSSHLKDEFQTLNSVTPRLQAEDCSIACLPRNHDKNRFMDMLPPDRCLPFLITIDGESSNYINAALMDSYRQPAAFIVTQYPLPNTVKDFWRLVYDYGCTSIVMLNEVDLSQGCPQYWPEEGMLRYGPIQVECMSCSMDCDVINRIFRICNLTRPQEGYLMVQQFQYLGWASHREVPGSKRSFLKLILQVEKWQEECEEGEGRTIIHCLNGGGRSGMFCAIGIVVEMVKRQNVVDVFHAVKTLRNSKPNMVEAPEQYRFCYDVALEYLESS

Assays:
[1] = target: SRC (endogenous, from RA FLS lysates), P12931
[2] = target: T1, phospho-SRC Y527 peptide …

Row | Protein | basal phosphorylation of SRC Y527 in RA FLS after PTPRK knockdown (Western blotting) [1] | in vitro dephosphorylation of the SRC phospho-Y527 peptide (PTP assay, Biomol Green, absorbance at 620 nm) [2]
1 | B1 | RA FLS treated with PTPRK ASO showed increased basal phosphorylation of SRC Y527 | –
2 | B2 | – | full-length RPTPk immunoprecipitated from COS-1 cells in vitro dephosphorylated a SRC phospho-Y527 peptide

Source: US20160122768
